B1: IZUMO1 ectodomain (BLI analyte) (domain or fragment)
chain: CVICDPSVVLALKSLEKDYLPGHLDAKHHKAMMERVENAVKDFQELSLNEDAYMGVVDEATLQKGSWSLLKDLKRITDSDVKGDLFVKELFWMLHLQKETFATYVARFQKEAYCPNKCGVMLQTLIWCKNCKKEVHACRKSYDCGERNVEVPQMEDMILDCELNWHQASEGLTDYSFYRVWGNNTETLVSKGKEATLTKPMVGPEDAGSYRCELGSVNSSPATIINFHVTVLPKMIKEEKPSPNIVTPGEATTESSISLQPLQPEKMLASR
B2: JUNO ectodomain (BLI analyte; target protein of the pull-down) (domain or fragment)
chain: GDELLNICMNAKHHKRVPSPEDKLYEECIPWKDNACCTLTTSWEAHLDVSPLYNFSLFHCGLLMPGCRKHFIQAICFYECSPNLGPWIQPVGSLGWEVAPSGQGERVVNVPLCQEDCEEWWEDCRMSYTCKSNWRGGWDWSQGKNRCPKGAQCLPFSHYFPTPADLCEKTWSNSFKASPERRNSGRCLQKWFEPAQGNPNVAVARLFAS

What was measured:
[1] = target: JUNO ectodomain, biotin-labelled, sensor-bound (UniProt A6ND01 20-228, biotin on free lysine residues (EZ link sulfo-NHS-LC-biotinylation kit, 1:1 protein to biotin ratio)); assay: BLI
[2] = target: IZUMO1 ectodomain, biotin-labelled, sensor-bound (human, UniProt Q8IYV9 22-292, biotin on free lysine residues (EZ link sulfo-NHS-LC-biotinylation kit, 1:1 protein to biotin ratio)); assay: BLI

Binder | Kd [1] | Kd [2]
B1 | 36.8 nM | 
B2 |  | 14.2 nM

Reference: publication PMC9482655 (2022)
